{
  "source": "patent US20020137891A1",
  "about": "“Protein scaffold and its use to multimerise monomeric polypeptides” (priority 1999, published 2002)",
  "molecules": {"B1": {"name": "GroEL(191-376): monomeric minichaperone, apical domain of GroEL residues 191 to 376, sht removed by thrombin cleavage (protein, UniProt P0A6F5 191-376, looked up, fragment)", "chain": "EGMQFDRGYLSPYFINKPETGAVELESPFILLADKKISNIREMLPVLEAVAKAGKPLLIIAEDVEGEALATLVVNTMRGIVKVAAVKAPGFGDRRKAMLQDIATLTGGTVISEEIGMELEKATLEDLGQAKRVVINKDTTTIIDGVGEEAAIQGRVAQIRQQIEEATSDYDREKLQERVAKLAGGV", "modifications": "apical domain", "notes": "monomeric minichaperone, apical domain of GroEL residues 191 to 376, sht removed by thrombin cleavage"}},
  "key": {"GroES": {"target": "GroES (Escherichia coli, UniProt P0A6F9)", "sequence (P0A6F9 whole entry)": "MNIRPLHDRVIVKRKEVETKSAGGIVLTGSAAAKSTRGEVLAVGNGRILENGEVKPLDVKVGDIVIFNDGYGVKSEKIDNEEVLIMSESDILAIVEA", "details": "ELISA; proteins coated at 10 μg/mL, GroES at 10 μg/mL, 25° C.", "experimental": "GroES binding and competition assays by ELISA (enzyme-linked immunosorbant assay). Proteins were coated onto plastic microtitre plates (Maxisorb, Nunc) overnight at 4° C. at a concentration of 10 μg/mL in carbonate buffer (50 mM NaHCO3, pH 9.6). Plates were blocked for 1 hour at 25° C. with 2% Marvel in PBS (phosphate buffered saline: 25 mM NaH2PO4, 125 mM NaCl, pH 7.0). GroES, at 10 μg/mL in 100 μL of 10 mM Tris-HCl, 200 mM KCl, pH 7.4, were bound at 25° C. for 1 hour. Bound GroES were detected with rabbit anti-GroES antibodies (Sigma) followed by anti-rabbit immunoglobulins horseradish peroxidase conjugated antibodies (Sigma)."}, "[1]": {"target": "T1, pig heart mitochondrial malate dehydrogenase (mtMDH) (Sus scrofa, UniProt P00346)", "T1 construct": "pig heart mitochondrial malate dehydrogenase (mtMDH; Boehringer-Mannheim); purchased Boehringer-Mannheim; host or cells: pig heart", "T1 sequence (P00346 25-338)": "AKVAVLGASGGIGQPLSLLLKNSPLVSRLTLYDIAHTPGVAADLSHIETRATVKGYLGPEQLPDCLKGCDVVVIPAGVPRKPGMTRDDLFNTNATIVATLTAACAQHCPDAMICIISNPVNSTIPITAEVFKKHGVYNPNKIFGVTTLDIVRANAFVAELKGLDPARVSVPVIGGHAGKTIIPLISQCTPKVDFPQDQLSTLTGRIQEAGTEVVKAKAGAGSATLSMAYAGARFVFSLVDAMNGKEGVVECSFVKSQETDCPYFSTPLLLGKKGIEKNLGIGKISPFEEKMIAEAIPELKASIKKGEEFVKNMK", "test": "In vitro refolding and aggregation protection of heat- and dithiothreitol-denatured mtMDH", "format": "biochemical", "details": "reactivation at 25° C., chaperone alone, FIG. 7b", "experimental": "In vitro refolding experiments. Refolding assays of pig heart mitochondrial malate dehydrogenase (mtMDH; Boehringer-Mannheim) and aggregation protection were carried out essentially as described (Peres Ben-Zvi, A. P., Chatellier, J., Fersht, A. R. & Goloubinoff, P. (1998) Proc. Natl. Acad. Sci. U.S.A. 95, 15275-15280). The concentrations of MC7 used were between 8-16 μM (reporter to protomer)."}, "bacteriophage λ (b2cI)": {"tested_on": "bacteriophage λ (b2cI)", "test": "Growth (plaque formation) of bacteriophage λ at 30° C. in transformed wild-type and groEL mutant strains", "format": "cell-based, E. coli", "from_the_text": "Bacterial and bacteriophage strains. The E. coli strains used in this study were: C41(DE3), a mutant of BL21(DE3) capable of expressing toxic genes (Miroux, B. & Walker, J. E. (1996) J. Mol. Biol. 260, 289-298); SV2 (B178groEL44), SV3 (B178groEL59) and SV6 (B178groEL673): isogenic strains carrying temperature-sensitive alleles of groEL; SV1(=B178) (Georgopoulos, C., Hendrix, R. W., Casjens, S. R. & Kaiser, A. D. (1973) J. Mol. Biol. 76, 45-60), AI90 (ΔgroEL::kan^R) [pBAD-EL] (Ivic, A., Olden, D., Wallington, E. J. & Lund, P. A. (1997) Gene 194, 1-8), and TG1 (Gibson, T. J. (1984) Ph.D. thesis, University of Cambridge, U.K). Bacteriophage λb2cI (Zeilstra-Ryalls, J., Fayet, O., Baird, L. & Georgopoulos, C. (1993) J. Bacteriol. 175, 1134-1143) was used according to standard methods (Arber, W., Enquist, L., Hohn, B., Murray, N. E. & Murray, K. (1983) in Lambda II., ed. R. W. Hendrix, J. W. r., F. W. Stahl and R. A. Weisberg (Cold Spring Harbor Laboratory, Cold Spring Harbor, N.Y.), pp. 433-466); plaque formation was assayed at 30° C. T4D0, a derivative of bacteriophage T4 (Zeilstra-Ryalls, J., Fayet, O., Baird, L. & Georgopoulos, C. (1993) J. Bacteriol. 175, 1134-1143), was used according to standard methods (Karam, J. D. (1994) Molecular biology of bacteriophage T4. (American Society for Microbiology, Washington, D.C.)); plaque formation was assayed at 37° C.\nBacteriophage λ requires the chaperonins GroES and GroEL for protein folding during morphogenesis; bacteriophage T4 requires GroEL and Gp31, the latter being encoded by the bacteriophage genome (Zeilstra-Ryalls, J., Fayet, O. & Georgopoulos, C. (1991) Annu. Rev. Microbiol. 45, 301-325). Nine groE alleles which fail to support λ growth have been sequenced (Zeilstra-Ryalls, J., Fayet, O., Baird, L. & Georgopoulos, C. (1993) J. Bacteriol. 175, 1134-1143). We examined the ability of MC7, over-expressed from the constitutive tet promoter on a high-copy number vector (see FIG. 2), to complement three mutant groEL alleles for plaque formation by λ (b2cI) at 30° C. (Table 3) and T4 at 37° C. (Table 4)."}},
  "data": [
    {"molecule": "B1", "values": [
      {"measurement": "Binding to GroES", "setting": "GroES", "result": "did not detectably bind"},
      {"measurement": "rate of refolding of denatured mtMDH", "setting": "[1]", "result": "ineffective in enhancing the refolding rate"},
      {"measurement": "Effect of over-expression on plaque formation by bacteriophage λ in SV1 (groE^+) (in words)", "setting": "bacteriophage λ (b2cI)", "result": "had no effect on plaque counts"}
    ]}
  ]
}
